This data set deals with Escherichia coli TOP10. The data set can be described thus: shrunken log2 fold change of peptide-encoding DNA abundance (4.5 h post-induction vs induction); higher = less antimicrobial activity (less host growth inhibition). The note with it: time post-induction: 4.5 h; library: site-saturation at positions 5, 18, 19, 20.
On to RRIRSRPPRLPRPRPRPHFHPRP, for which the “shrunken log2 fold change” value is -0.428. RRIRRRPPRLPRPRPRPSSAPRP: the “shrunken log2 fold change” value was 0.421.

On to RRIRIRPPRLPRPRPRPSPIPRP, for which the “shrunken log2 fold change” value was -0.574. In the case of RRIRLRPPRLPRPRPRPRFRPRP, the “shrunken log2 fold change” value turned out to be 0.117. Then RRIRYRPPRLPRPRPRPYHIPRP, with -0.23. Then RRIRWRPPRLPRPRPRPAFFPRP, with 0.111; and RRIRSRPPRLPRPRPRPRTGPRP, with 0.185. In the case of RRIRYRPPRLPRPRPRPYQRPRP it was -0.00973.

Regarding RRIRLRPPRLPRPRPRPYSRPRP, the “shrunken log2 fold change” value came to 0.0264. Then RRIRPRPPRLPRPRPRPIVVPRP, with -0.134; and RRIRKRPPRLPRPRPRPNFGPRP, with 0.252; and RRIRLRPPRLPRPRPRPHMPPRP, with -0.222. In the case of RRIRCRPPRLPRPRPRPDNHPRP it was -0.719; in that of RRIRWRPPRLPRPRPRPCVNPRP, 0.0912; in that of RRIRNRPPRLPRPRPRPVYEPRP, -0.027. Then RRIRSRPPRLPRPRPRPMKPPRP, with -0.0309; and RRIRERPPRLPRPRPRPIVPPRP, with -0.25. Turning to RRIRYRPPRLPRPRPRPGCFPRP, the “shrunken log2 fold change” value is -0.349. Then RRIRLRPPRLPRPRPRPNSTPRP, with -0.294; and RRIRGRPPRLPRPRPRPDVPPRP, with 0.0136; and RRIRGRPPRLPRPRPRPMVDPRP, with 0.0455. For the sequence RRIRNRPPRLPRPRPRPRGEPRP, the “shrunken log2 fold change” value was -0.029.

As for RRIRFRPPRLPRPRPRPNMNPRP, the “shrunken log2 fold change” value is -0.953. Then RRIRQRPPRLPRPRPRPRADPRP, with 0.156; and RRIRLRPPRLPRPRPRPITGPRP, with -0.0243. In the case of RRIRMRPPRLPRPRPRPGMFPRP it was 0.341; in that of RRIRDRPPRLPRPRPRPWSKPRP, -0.203. For the sequence RRIRGRPPRLPRPRPRPSQFPRP, the “shrunken log2 fold change” value worked out at 0.192.

On to RRIRDRPPRLPRPRPRPENFPRP, for which the “shrunken log2 fold change” value came out at 0.043. Then RRIRVRPPRLPRPRPRPRTYPRP, with -0.309; and RRIRPRPPRLPRPRPRPCWQPRP, with -0.021; and RRIRDRPPRLPRPRPRPCQWPRP, with -0.134. On to RRIRDRPPRLPRPRPRPWWAPRP, for which the “shrunken log2 fold change” value is 0.61. RRIRPRPPRLPRPRPRPKLIPRP: the “shrunken log2 fold change” value is -0.0783. Then RRIRGRPPRLPRPRPRPVCTPRP, with 0.73. Take RRIRHRPPRLPRPRPRPLIEPRP: the “shrunken log2 fold change” value was -0.106. Take RRIRPRPPRLPRPRPRPVSAPRP: the “shrunken log2 fold change” value came to 0.249.

RRIRDRPPRLPRPRPRPIHCPRP: the “shrunken log2 fold change” value was -0.135. On to RRIRDRPPRLPRPRPRPDDHPRP, for which the “shrunken log2 fold change” value amounted to 0.023. RRIRDRPPRLPRPRPRPHCAPRP: the “shrunken log2 fold change” value amounted to 0.143. Turning to RRIRGRPPRLPRPRPRPEDVPRP, the “shrunken log2 fold change” value was 0.157. Take RRIRWRPPRLPRPRPRPVNGPRP: the “shrunken log2 fold change” value is -0.295. Regarding RRIRHRPPRLPRPRPRPEGHPRP, the “shrunken log2 fold change” value was 0.065. With RRIRYRPPRLPRPRPRPRISPRP, the “shrunken log2 fold change” value is -0.218. On to RRIRQRPPRLPRPRPRPHHCPRP, for which the “shrunken log2 fold change” value is -0.652.

Consider RRIRIRPPRLPRPRPRPFTPPRP, for which the “shrunken log2 fold change” value was -0.875. As to RRIRERPPRLPRPRPRPRDKPRP, the “shrunken log2 fold change” value was -0.187. Take RRIRPRPPRLPRPRPRPDITPRP: the “shrunken log2 fold change” value is -0.783. For the sequence RRIRSRPPRLPRPRPRPNAEPRP, the “shrunken log2 fold change” value came to 0.572. Turning to RRIRHRPPRLPRPRPRPYDFPRP, the “shrunken log2 fold change” value was -0.0434.

(Values after the supplement of paper PMC9112550, “Optimization of the antimicrobial peptide Bac7 by deep mutational scanning” (BMC Biology, 2022).)
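Note: peptides expressed intracellularly from a pBAD plasmid library in pooled LB shake-flask culture, induced with 0.3% L-arabinose, DNA abundance read by NGS, three biological replicates, DESeq2 with apeglm shrinkage.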
